Results: article PMC2192707

Target: T1, calnexin (UniProt P35564)
T1 sequence: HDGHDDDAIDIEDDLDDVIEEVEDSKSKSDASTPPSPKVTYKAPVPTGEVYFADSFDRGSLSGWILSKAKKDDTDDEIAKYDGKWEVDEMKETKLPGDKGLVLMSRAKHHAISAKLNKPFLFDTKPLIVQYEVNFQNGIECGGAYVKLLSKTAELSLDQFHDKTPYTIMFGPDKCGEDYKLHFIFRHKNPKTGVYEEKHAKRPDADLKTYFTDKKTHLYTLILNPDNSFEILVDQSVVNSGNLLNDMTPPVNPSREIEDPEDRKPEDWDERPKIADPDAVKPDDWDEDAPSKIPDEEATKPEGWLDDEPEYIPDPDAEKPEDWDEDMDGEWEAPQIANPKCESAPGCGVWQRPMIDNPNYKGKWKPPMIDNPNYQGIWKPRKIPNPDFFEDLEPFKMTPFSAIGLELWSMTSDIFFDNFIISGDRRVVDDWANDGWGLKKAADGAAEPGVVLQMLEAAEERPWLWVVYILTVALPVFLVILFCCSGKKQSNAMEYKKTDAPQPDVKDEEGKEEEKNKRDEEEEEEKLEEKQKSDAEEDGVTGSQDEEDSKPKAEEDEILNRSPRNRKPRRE
Settings: co-IP

H-2Db class I heavy chain (endogenous in EL4)
percent of heterodimers associated with calnexin: 85% ofD b heterodimers

H-2Kb class I heavy chain
percent of heterodimers associated with calnexin: ~45% ofK b heterodimers
